# Reference: patent US20240261333A1, “NOVEL TARGETS FOR ENHANCING ANTI-TUMOR IMMUNITY” (THE BROAD INSTITUTE, INC., priority 2021, published 2024)
# T1: B3GNT2 (Homo sapiens, UniProt Q9NY97)
# T1 construct: The respective ORFs of candidate genes [CD274 (NM_014143), MCL1 (NM_021960), JUNB (NM_002229), and B3GNT2 (NM_006577)] were synthesized; expressed in transfected cells; host or cells: A375 melanoma cells (lentiviral ORF overexpression)
# T1 sequence (Q9NY97 1-397): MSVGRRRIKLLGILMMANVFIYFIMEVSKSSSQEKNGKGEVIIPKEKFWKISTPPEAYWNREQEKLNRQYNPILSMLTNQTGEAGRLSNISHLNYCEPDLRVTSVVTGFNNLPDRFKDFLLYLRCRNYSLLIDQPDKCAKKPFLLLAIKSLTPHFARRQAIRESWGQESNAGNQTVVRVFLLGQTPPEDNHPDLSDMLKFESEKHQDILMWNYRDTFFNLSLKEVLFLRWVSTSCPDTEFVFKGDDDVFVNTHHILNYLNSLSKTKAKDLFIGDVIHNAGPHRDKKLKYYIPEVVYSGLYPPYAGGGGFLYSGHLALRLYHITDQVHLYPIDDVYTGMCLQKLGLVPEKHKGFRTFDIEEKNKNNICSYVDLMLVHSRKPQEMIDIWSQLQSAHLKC
# B1: NAP1L1 (protein)
# chain: ADIDNKEQSELDQDLDDVEEVEEEETGEETKLKARQLTVQMMQNPQILAALQERLDGLVETPTGYIESLPRVVKRRVNALKNLQVKCAQIEAKFYEEVHDLERKYAVLYQPLFDKRFEIINAIYEPTEEECEWKPDEEDEISEELKEKAKIEDEKKDEEKEDPKGIPEFWLTVFKNVDLLSDMVQEHDEPILKHLKDIKVKFSDAGQPMSFVLEFHFEPNEYFTNEVLTKTYRMRSEPDDSDPFSFDGPEIMGCTGCQIDWKKGKNVTLKTIKKKQKHKGRGTVRTVTKTVSNDSFFNFFAPPEVPESGDLDDDAEAILAADFEIGHFLRERIIPRSVLYFTGEAIEDDDDDYDEEGEEADEEGEEEGDEENDPDYDPKKDQNPAEC
# B2: TTC13 (protein)
# chain: MAPAGCCCCCCFWGGAVAAAGAARRVLLLLLLGVLSAGLRPGALATEHYSPLSLLKQELQHRQQQEAPAGGGGCSPQSGDWGDQYSAECGESSFLNFHDSDCEPKGSSPCDSLLSLNTEKILSQAKSIAEQKRFPFATDNDSTNEELAIAYVLIGSGLYDEAIRHFSTMLQILSPLGRINEAVNDLTKAIQLQPSARLYRHRGTLYFISEDYATAHEDFQQSLELNKNQPIAMLYKGLTFFHRGLLKEAIESFKEALKQKVDFIDAYKSLGQAYRELGNFEAATESFQKALLLNQNHVQTLQLRGMMLYHHGSLQEALKNFKRCLQLEPYNEVCQYMKGLSHVAMGQFYEGIKAQTKVMLNDPLPGQKASPEYLKVKYLREYSRYLHAHLDTPLTEYNIDVDLPGSFKDHWAKNLPFLIEDYEEQPGLQPHIKDVLHQNFESYKPEVQELICVADRLGSLMQYETPGFLPNKRIHRAMGLAALEVMQAVQRTWTNSKVRMNGKTRLMQWRDMFDIAVKWRRIADPDQPVLWLDQMPARSLSRGFNNHINLIRGQVINMRYLEYFEKILHFIKDRILVYHGANNPKGLLEVREALEKVHKVEDLLPIMKFNTKTKDGFTVNTKVPSLKDQGKEYDGFTITITGDKVGNILFSVETQTTEERTQLYHAEIDALYKDLTAKGKVLILSSEFGEADAVCNLILSLVYYFYNLMPLSRGSSVIAYSVIVGALMASGKEVAGKIPKGKLVDFEAMTAPGSEAFSKVAKSWMNLKSISPSYKTLPSVSETFPTLRSMIEVLNTDSSPRCLKKL
# B3: TGM1 (protein)
# chain: MMDGPRSDVGRWGGNPLQPPTTPSPEPEPEPDGRSRRGGGRSFWARCCGCCSCRNAADDDWGPEPSDSRGRGSSSGTRRPGSRGSDSRRPVSRGSGVNAAGDGTIREGMLVVNGVDLLSSRSDQNRREHHTDEYEYDELIVRRGQPFHMLLLLSRTYESSDRITLELLIGNNPEVGKGTHVIIPVGKGGSGGWKAQVVKASGQNLNLRVHTSPNAIIGKFQFTVRTQSDAGEFQLPFDPRNEIYILFNPWCPEDIVYVDHEDWRQEYVLNESGRIYYGTEAQIGERTWNYGQFDHGVLDACLYILDRRGMPYGGRGDPVNVSRVISAMVNSLDDNGVLIGNWSGDYSRGTNPSAWVGSVEILLSYLRTGYSVPYGQCWVFAGVTTTVLRCLGLATRTVTNFNSAHDTDTSLTMDIYFDENMKPLEHLNHDSVWNFHVWNDCWMKRPDLPSGFDGWQVVDATPQETSSGIFCCGPCSVESIKNGLVYMKYDTPFIFAEVNSDKVYWQRQDDGSFKIVYVEEKAIGTLIVTKAISSNMREDITYLYKHPEGSDAERKAVETAAAHGSKPNVYANRGSAEDVAMQVEAQDAVMGQDLMVSVMLINHSSSRRTVKLHLYLSVTFYTGVSGTIFKETKKEVELAPGASDRVTMPVAYKEYRPHLVDQGAMLLNVSGHVKESGQVLAKQHTFRLRTPDLSLTLLGAAVVGQECEVQIVFKNPLPVTLTNVVFRLEGSGLQRPKILNVGDIGGNETVTLRQSFVPVRPGPRQLIASLDSPQLSQVHGVIQVDVAPAPGDGGFFSDAGGDSHLGETIPMASRGGA
# B4: CPSF7 (protein)
# chain: MSEGVDLIDIYADEEFNQDPEFNNTDQIDLYDDVLTATSQPSDDRSSSTEPPPPVRQEPSPKPNNKTPAILYTYSGLRNRRAAVYVGSFSWWTTDQQLIQVIRSIGVYDVVELKFAENRANGQSKGYAEVVVASENSVHKLLELLPGKVLNGEKVDVRPATRQNLSQFEAQARKRECVRVPRGGIPPRAHSRDSSDSADGRATPSENLVPSSARVDKPPSVLPYFNRPPSALPLMGLPPPPIPPPPPLSSSFGVPPPPPGIHYQHLMPPPPRLPPHLAVPPPGAIPPALHLNPAFFPPPNATVGPPPDTYMKASAPYNHHGSRDSGPPPSTVSEAEFEDIMKRNRAISSSAISKAVSGASAGDYSDAIETLLTAIAVIKQSRVANDERCRVLISSLKDCLHGIEAKSYSVGASGSSSRKRHRSRERSPSRSRESSRRHRDLLHNEDRHDDYFQERNREHERHRDRERDRHH
# B5: PSMA3 (protein)
# chain: SSIGTGYDLSASTFSPDGRVFQVEYAMKAVENSSTAIGIRCKDGVVFGVEKLVLSKLYEEGSNKRLFNVDRHVGMAVAGLLADARSLADIAREEASNFRSNFGYNIPLKHLADRVAMYVHAYTLYSAVRPFGCSFMLGSYSVNDGAQLYMIDPSGVSYGYWGCAIGKARQAAKTEIEKLQMKEMTCRDIVKEVAKIIYIVHDEVKDKAFELELSWVGELTNGRHEIVPKDIREEAEKYAKESLKEEDESDDDNM
# B6: SPARC (protein)
# chain: APQQEALPDETEVVEETVAEVTEVSVGANPVQVEVGEFDDGAEETEEEVVAENPCQNHHCKHGKVCELDENNTPMCVCQDPTSCPAPIGEFEKVCSNDNKTFDSSCHFFATKCTLEGTKKGHKLHLDYIGPCKYIPPCLDSELTEFPLRMRDWLKNVLVTLYERDEDNNLLTEKQKLRVKKIHENEKRLEAGDHPVELLARDFEKNYNMYIFPVHWQFGQLDQHPIDGYLSHTELAPLRAPLIPMEHCTTRFFETCDLDNDKYIALDEWAGCFGIKQKDIDKDLVI
# B7: LUC7L3 (protein, UniProt O95232 1-432, looked up)
# Luc7-like protein 3: MISAAQLLDELMGRDRNLAPDEKRSNVRWDHESVCKYYLCGFCPAELFTNTRSDLGPCEKIHDENLRKQYEKSSRFMKVGYERDFLRYLQSLLAEVERRIRRGHARLALSQNQQSSGAAGPTGKNEEKIQVLTDKIDVLLQQIEELGSEGKVEEAQGMMKLVEQLKEERELLRSTTSTIESFAAQEKQMEVCEVCGAFLIVGDAQSRVDDHLMGKQHMGYAKIKATVEELKEKLRKRTEEPDRDERLKKEKQEREEREKEREREREERERKRRREEEEREKERARDRERRKRSRSRSRHSSRTSDRRCSRSRDHKRSRSRERRRSRSRDRRRSRSHDRSERKHRSRSRDRRRSKSRDRKSYKHRSKSRDREQDRKSKEKEKRGSDDKKSSVKSGSREKQSEDTNTESKESDTKNEVNGTSEDIKSEGDTQSN
# B8: PURA (protein)
# chain: ADRDSGSEQGGAALGSGGSLGHPGSGSGSGGGGGGGGGGGGSGGGGGGAPGGLQHETQELASKRVDIQNKRFYLDVKQNAKGRFLKIAEVGAGGNKSRLTLSMSVAVEFRDYLGDFIEHYAQLGPSQPPDLAQAQDEPRRALKSEFLVRENRKYYMDLKENQRGRFLRIRQTVNRGPGLGSTQGQTIALPAQGLIEFRDALAKLIDDYGVEEEPAELPEGTSLTVDNKRFFFDVGSNKYGVFMRVSEVKPTYRNSITVPYKVWAKFGHTFCKYSEEMKKIQEKQREKRAACEQLHQQQQQQQEETAAATLLLQGEEEGEED
# B9: ERLEC1 (protein)
# chain: LPQLSDDIPFRVNWPGTEFSLPTTGVLYKEDNYVIMTTAHKEKYKCILPLVTSGDEEEEKDYKGPNPRELLEPLFKQSSCSYRIESYWTYEVCHGKHIRQYHEEKETGQKINIHEYYLGNMLAKNLLFEKEREAEEKEKSNEIPTKNIEGQMTPYYPVGMGNGTPCSLKQNRPRSSTVMYICHPESKHEILSVAEVTTCEYEVVILTPLLCSHPKYRFRASPVNDIFCQSLPGSPFKPLTLRQLEQQEEILRVPFRRNKEEDLQSTKEERFPAIHKSIAIGSQPVLTVGTTHISKLTDDQLIKEFLSGSYCFRGGVGWWKYEFCYGKHVHQYHEDKDSGKTSVVVGTWNQEEHIEWAKKNTARAYHLQDDGTQTVRCKESDSPHAVTVYMLEPHSCQYILGVESPVICKILDTADENGLLSLPN
# Target: T1, B3GNT2
# Assay: Co-IP of FLAG-tagged B3GNT2 followed by mass spectrometry
# Assay type: cell-based
# Design: C-term IgG / C-term flag: unit not given here
# Conditions: Co-IP followed by mass spectrometry of B3GNT2; C-term tag, FLAG pull-down
# Method in brief: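 FLAG-tagged B3GNT2 immunoprecipitated from cell lysate (HEPES, 1% Triton X-100, 150 mM NaCl) with anti-FLAG versus […], overnight at 4° C, then captured on Protein A/G magnetic beads for 4 h. Two biological replicates per condition. Peptides fractionated and analyzed by nano-LC on an Orbitrap Elite in data-dependent mode.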
row,Molecule,C-term flag
1,B1,4
2,B2,4
3,B3,8
4,B4,9
5,B5,0
6,B6,4
7,B7,3
8,B8,3

# Same assay, conditions: Co-IP followed by mass spectrometry of B3GNT2; C-term tag, IgG pull-down
row,Molecule,C-term IgG
1,B1,0
2,B2,0
3,B3,10
4,B4,9
5,B5,0
6,B6,0
7,B7,3
8,B8,0

# Same assay, conditions: Co-IP followed by mass spectrometry of B3GNT2; N-term tag, FLAG pull-down
row,Molecule,N-term FLAG
1,B1,0
2,B2,0
3,B3,17
4,B4,12
5,B5,4
6,B6,0
7,B7,4
8,B8,0

# Same assay, conditions: Co-IP followed by mass spectrometry of B3GNT2; N-term tag, IgG pull-down
row,Molecule,N-term IgG
1,B1,0
2,B2,0
3,B3,9
4,B4,8
5,B5,0
6,B6,0
7,B7,2
8,B8,2

# Same assay, conditions: Co-IP with FLAG antibody, C-terminally FLAG-tagged B3GNT2; mass spectrometry count, unit not given
row,Molecule,C-term flag
1,B9,3

# Same assay, conditions: Co-IP with FLAG antibody, N-terminally FLAG-tagged B3GNT2; mass spectrometry count, unit not given
row,Molecule,N-term FLAG
1,B9,0

# Same assay, conditions: Co-IP with IgG control antibody, C-terminally FLAG-tagged B3GNT2; mass spectrometry count, unit not given
row,Molecule,C-term IgG
1,B9,0

# Same assay, conditions: Co-IP with IgG control antibody, N-terminally FLAG-tagged B3GNT2; mass spectrometry count, unit not given
row,Molecule,N-term IgG
1,B9,0
